B1: "N-acyl-aromatic-L-amino acid amidohydrolase (carboxylate-forming)" (Homo sapiens), Q96HD9 (parent)
chain: MCSLPVPREPLRRVAVTGGTHGNEMSGVYLARHWLHAPAELQRASFSAVPVLANPAATSGCRRYVDHDLNRTFTSSFLNSRPTPDDPYEVTRARELNQLLGPKASGQAFDFVLDLHNTTANMGTCLIAKSSHEVFAMHLCRHLQLQYPELSCQVFLYQRSGEESYNLDSVAKNGLGLELGPQPQGVLRADIFSRMRTLVATVLDFIELFNQGTAFPAFEMEAYRPVGVVDFPRTEAGHLAGTVHPQLQDRDFQPLQPGAPIFQMFSGEDLLYEGESTVYPVFINEAAYYEKGVAFVQTEKFTFTVPAMPALTPAPSPAS
partner: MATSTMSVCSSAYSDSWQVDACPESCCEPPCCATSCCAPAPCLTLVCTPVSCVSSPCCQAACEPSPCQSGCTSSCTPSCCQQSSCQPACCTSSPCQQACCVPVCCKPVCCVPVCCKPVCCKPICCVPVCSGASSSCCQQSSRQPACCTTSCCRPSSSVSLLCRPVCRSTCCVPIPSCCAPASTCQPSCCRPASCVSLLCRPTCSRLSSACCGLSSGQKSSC
B2: Serine/threonine-protein kinase PAK 5 (Homo sapiens), Q9P286 (parent)
chain: MFGKKKKKIEISGPSNFEHRVHTGFDPQEQKFTGLPQQWHSLLADTANRPKPMVDPSCITPIQLAPMKTIVRGNKPCKETSINGLLEDFDNISVTRSNSLRKESPPTPDQGASSHGPGHAEENGFITFSQYSSESDTTADYTTEKYREKSLYGDDLDPYYRGSHAAKQNGHVMKMKHGEAYYSEVKPLKSDFARFSADYHSHLDSLSKPSEYSDLKWEYQRASSSSPLDYSFQFTPSRTAGTSGCSKESLAYSESEWGPSLDDYDRRPKSSYLNQTSPQPTMRQRSRSGSGLQEPMMPFGASAFKTHPQGHSYNSYTYPRLSEPTMCIPKVDYDRAQMVLSPPLSGSDTYPRGPAKLPQSQSKSGYSSSSHQYPSGYHKATLYHHPSLQSSSQYISTASYLSSLSLSSSTYPPPSWGSSSDQQPSRVSHEQFRAALQLVVSPGDPREYLANFIKIGEGSTGIVCIATEKHTGKQVAVKKMDLRKQQRRELLFNEVVIMRDYHHDNVVDMYSSYLVGDELWVVMEFLEGGALTDIVTHTRMNEEQIATVCLSVLRALSYLHNQGVIHRDIKSDSILLTSDGRIKLSDFGFCAQVSKEVPKRKSLVGTPYWMAPEVISRLPYGTEVDIWSLGIMVIEMIDGEPPYFNEPPLQAMRRIRDSLPPRVKDLHKVSSVLRGFLDLMLVREPSQRATAQELLGHPFLKLAGPPSCIVPLMRQYRHH
partner: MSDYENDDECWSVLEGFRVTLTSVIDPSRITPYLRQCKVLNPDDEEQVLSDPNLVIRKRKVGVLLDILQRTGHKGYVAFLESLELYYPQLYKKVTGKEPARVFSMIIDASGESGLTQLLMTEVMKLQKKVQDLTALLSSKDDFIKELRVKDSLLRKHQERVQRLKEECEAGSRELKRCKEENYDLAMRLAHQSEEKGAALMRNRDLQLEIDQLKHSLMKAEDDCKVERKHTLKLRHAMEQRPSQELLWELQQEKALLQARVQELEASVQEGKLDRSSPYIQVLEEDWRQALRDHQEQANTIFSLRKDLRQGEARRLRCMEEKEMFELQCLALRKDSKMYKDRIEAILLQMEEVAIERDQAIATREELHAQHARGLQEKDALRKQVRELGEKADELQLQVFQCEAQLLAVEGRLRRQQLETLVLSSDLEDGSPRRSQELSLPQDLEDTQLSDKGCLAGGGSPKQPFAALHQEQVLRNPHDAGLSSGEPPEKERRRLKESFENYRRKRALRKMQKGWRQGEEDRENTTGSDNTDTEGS
B3: Calcium-binding and coiled-coil domain-containing protein 2 (Homo sapiens), Q13137 (parent)
chain: MEETIKDPPTSAVLLDHCHFSQVIFNSVEKFYIPGGDVTCHYTFTQHFIPRRKDWIGIFRVGWKTTREYYTFMWVTLPIDLNNKSAKQQEVQFKAYYLPKDDEYYQFCYVDEDGVVRGASIPFQFRPENEEDILVVTTQGEVEEIEQHNKELCKENQELKDSCISLQKQNSDMQAELQKKQEELETLQSINKKLELKVKEQKDYWETELLQLKEQNQKMSSENEKMGIRVDQLQAQLSTQEKEMEKLVQGDQDKTEQLEQLKKENDHLFLSLTEQRKDQKKLEQTVEQMKQNETTAMKKQQELMDENFDLSKRLSENEIICNALQRQKERLEGENDLLKRENSRLLSYMGLDFNSLPYQVPTSDEGGARQNPGLAYGNPYSGIQESSSPSPLSIKKCPICKADDICDHTLEQQQMQPLCFNCPICDKIFPATEKQIFEDHVFCHSL
partner: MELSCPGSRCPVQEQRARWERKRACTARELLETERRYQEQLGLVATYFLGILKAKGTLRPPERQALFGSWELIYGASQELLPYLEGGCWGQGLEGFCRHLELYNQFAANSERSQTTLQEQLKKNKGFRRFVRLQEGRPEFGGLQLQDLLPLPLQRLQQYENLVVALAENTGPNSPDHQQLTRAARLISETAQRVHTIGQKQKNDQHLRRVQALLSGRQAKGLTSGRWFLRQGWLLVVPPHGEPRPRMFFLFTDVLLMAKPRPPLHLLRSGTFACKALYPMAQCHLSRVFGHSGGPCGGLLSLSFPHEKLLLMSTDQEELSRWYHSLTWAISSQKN
B4: Peroxisomal biogenesis factor 3 (Homo sapiens), P56589 (parent)
chain: MLRSVWNFLKRHKKKCIFLGTVLGGVYILGKYGQKKIREIQEREAAEYIAQARRQYHFESNQRTCNMTVLSMLPTLREALMQQLNSESLTALLKNRPSNKLEIWEDLKIISFTRSTVAVYSTCMLVVLLRVQLNIIGGYIYLDNAAVGKNGTTILAPPDVQQQYLSSIQHLLGDGLTELITVIKQAVQKVLGSVSLKHSLSLLDLEQKLKEIRNLVEQHKSSSWINKDGSKPLLCHYMMPDEETPLAVQACGLSPRDITTIKLLNETRDMLESPDFSTVLNTCLNRGFSRLLDNMAEFFRPTEQDLQHGNSMNSLSSVSLPLAKIIPIVNGQIHSVCSETPSHFVQDLLTMEQVKDFAANVYEAFSTPQQLEK
partner: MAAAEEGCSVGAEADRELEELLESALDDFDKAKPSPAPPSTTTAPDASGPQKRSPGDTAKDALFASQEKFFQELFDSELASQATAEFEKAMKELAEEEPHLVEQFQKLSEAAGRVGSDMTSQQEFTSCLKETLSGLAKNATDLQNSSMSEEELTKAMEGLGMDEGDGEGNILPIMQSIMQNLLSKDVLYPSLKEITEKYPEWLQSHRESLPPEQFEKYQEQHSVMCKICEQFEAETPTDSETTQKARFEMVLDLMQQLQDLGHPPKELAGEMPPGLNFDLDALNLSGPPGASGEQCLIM
B5: Syntaxin-3 (Homo sapiens), Q13277 (parent)
chain: MKDRLEQLKAKQLTQDDDTDAVEIAIDNTAFMDEFFSEIEETRLNIDKISEHVEEAKKLYSIILSAPIPEPKTKDDLEQLTTEIKKRANNVRNKLKSMEKHIEEDEVRSSADLRIRKSQHSVLSRKFVEVMTKYNEAQVDFRERSKGRIQRQLEITGKKTTDEELEEMLESGNPAIFTSGIIDSQISKQALSEIEGRHKDIVRLESSIKELHDMFMDIAMLVENQGEMLDNIELNVMHTVDHVEKARDETKKAVKYQSQARKKLIIIIVLVVVLLGILALIIGLSVGLN
partner: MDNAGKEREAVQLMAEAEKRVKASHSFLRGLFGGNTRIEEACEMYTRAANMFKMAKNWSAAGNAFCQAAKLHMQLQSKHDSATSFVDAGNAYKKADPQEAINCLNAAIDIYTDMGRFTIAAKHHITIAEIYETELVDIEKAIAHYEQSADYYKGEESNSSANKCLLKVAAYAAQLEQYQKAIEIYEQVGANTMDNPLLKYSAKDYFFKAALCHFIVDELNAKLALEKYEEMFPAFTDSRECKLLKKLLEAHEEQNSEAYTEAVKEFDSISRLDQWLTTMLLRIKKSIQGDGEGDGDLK

Variants of: B1
Conditions: with kr103_human KRTAP10-3, P60369

effect of a mutation on the interaction | Variant
with no effect | MCSLPVPQEPLRRVAVTGGTHGNEMSGVYLARHWLHAPAELQRASFSAVPVLANPAATSGCRRYVDHDLNRTFTSSFLNSRPTPDDPYEVTRARELNQLLGPKASGQAFDFVLDLHNTTANMGTCLIAKSSHEVFAMHLCRHLQLQYPELSCQVFLYQRSGEESYNLDSVAKNGLGLELGPQPQGVLRADIFSRMRTLVATVLDFIELFNQGTAFPAFEMEAYRPVGVVDFPRTEAGHLAGTVHPQLQDRDFQPLQPGAPIFQMFSGEDLLYEGESTVYPVFINEAAYYEKGVAFVQTEKFTFTVPAMPALTPAPSPAS [R8Q]

Variants of: B2
Conditions: with card9_human CARD9, Q9H257

effect of a mutation on the interaction | Variant
with no effect | R335P

Variants of: B3
Conditions: with arg39_human ARHGEF39, Q8N4T4

effect of a mutation on the interaction | Variant
with no effect | MEETIKDPPTSAVLLDHCHFSQVIFNSVEKFYIPGGDVTCHYTFTQHFIPRRKDWIGIFRVGWKTTREYYTFMWVTLPIDLNNKSAKQQEVQFKAYYLPKDDEYYQFCYVDEDGVVRGASIPFQFRPENEEDILVVTTQGEVEEIEQHNKELCKENQELKDSCISLQKQNSDMQAELQKKQEELETLQSINKKLELKVKEQKDYWETELLQLKEQNQKMSSENEKMGIRVDQLQAQLSTQEKEMEKLAQGDQDKTEQLEQLKKENDHLFLSLTEQRKDQKKLEQTVEQMKQNETTAMKKQQELMDENFDLSKRLSENEIICNALQRQKERLEGENDLLKRENSRLLSYMGLDFNSLPYQVPTSDEGGARQNPGLAYGNPYSGIQESSSPSPLSIKKCPICKADDICDHTLEQQQMQPLCFNCPICDKIFPATEKQIFEDHVFCHSL [V248A]

Variants of: B4
Conditions: with pex19_human PEX19, P40855

effect of a mutation on the interaction | Variant
with no effect | MLRSVWNFLKRHKKKCIFLGTVLGGVYILGKYGQKKIREIQEREAAEYIAQARRQYHFESNQRTCNMTVLSMLPTLREALMQQLNSESLTALLKNRPSNKLEIWEDLKIISFTRSTVAVYSTCMLVVLLRVQLNIIGGYIYLDNAAVGKNGTTILAPPDVQQQYLSSIQHLLGDGLTELITVIKQAVQKVLGSVSLKHSLSLLDLEQKLKEIRNLVEQHKSSSWINKDGSKPLLCHYMMPDEETPLAVQACGLSPRDITTIKLLNETRDMLESPDFSTVLNTCLNRGFSRLLDNMAEFFRPTEQDLQHGNSMNSLSSVSLPLAKIIPIVNGQIHSVCSETPSHFVQYLLTMEQVKDFAANVYEAFSTPQQLEK [D347Y]
with no effect | MLRSVWNFLKRHKKKCIFLGTVLGGVYILGKYGQKKIREIQEREAAEYIAQARRQYHFESNQRTCNMTVLSMLPTLREALMRQLNSESLTALLKNRPSNKLEIWEDLKIISFTRSTVAVYSTCMLVVLLRVQLNIIGGYIYLDNAAVGKNGTTILAPPDVQQQYLSSIQHLLGDGLTELITVIKQAVQKVLGSVSLKHSLSLLDLEQKLKEIRNLVEQHKSSSWINKDGSKPLLCHYMMPDEETPLAVQACGLSPRDITTIKLLNETRDMLESPDFSTVLNTCLNRGFSRLLDNMAEFFRPTEQDLQHGNSMNSLSSVSLPLAKIIPIVNGQIHSVCSETPSHFVQDLLTMEQVKDFAANVYEAFSTPQQLEK [Q82R]

Variants of: B5
Conditions: with snab_human NAPB

effect of a mutation on the interaction | Variant
with no effect | MKDRLEQLKAKQLTQDDDTDAVEIAIDNTAFMDEFFSEIEETRLNIDKISEHVEEAKKLYSIILSAPIPEPKTKDDLEQLTTEIKKRANNVRNKLKSMEKHIEEDEVRSSADLRIRKSQHSVLSRKFVEVMTKYNEAQVDFRERSKGRIQRQLEITGKKTTDEELEEMLESGNPAIFTSGIIDSQISKQALSEIEGRYKDIVRLESSIKELHDMFMDIAMLVENQGEMLDNIELNVMHTVDHVEKARDETKKAVKYQSQARKKLIIIIVLVVVLLGILALIIGLSVGLN [H198Y]
